The text below walks through data of publication PMC8028046.

Experiment [1] has as its target amyloid-beta fibrils (Homo sapiens) (UniProt P05067). As to the kind of experiment: SPR. To be noted: cited from earlier work.
A further experiment deals with Aβ42 fibrils (human) (UniProt P05067). Kind of experiment: SPR; Aβ42 fibrils immobilized; BRICHOS at 0.391-12.5 μM; global heterogeneous ligand model with two binding sites; apparent constants. On the technique in general: Surface plasmon resonance follows binding to a sensor surface in real time, without labels.
The target in experiment [2] is soluble Aβ42 aggregates of different sizes (human) (UniProt P05067). As to the kind of experiment: FCCS; time course of aggregation of 5, 10 or 20 μM unlabeled Aβ42 with 100 nM HiLyteFluor488-Aβ42 and 483 nM proSP-C BRICHOS T187R (100 nM labeled with Atto655); auto- and cross-correlation curves analysed by MEMFCS and a two-component 3D diffusion model.

Some results are limits rather than exact numbers.

The term Kd denotes a measure of binding affinity in units of concentration. By stoichiometry N is commonly meant a count of units in the complex or per binding partner.

Chain of proSP-C BRICHOS WT (P11686 59-197): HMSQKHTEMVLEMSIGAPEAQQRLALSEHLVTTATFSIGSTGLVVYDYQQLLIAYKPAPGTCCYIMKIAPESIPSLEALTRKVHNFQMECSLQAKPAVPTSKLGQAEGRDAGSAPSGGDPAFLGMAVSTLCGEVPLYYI
Chain of Aβ42 fibrils (human) (P05067 671-713): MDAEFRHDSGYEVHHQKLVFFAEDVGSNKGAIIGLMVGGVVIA
Chain of proSP-C BRICHOS BRICHOS (P11686 91-197): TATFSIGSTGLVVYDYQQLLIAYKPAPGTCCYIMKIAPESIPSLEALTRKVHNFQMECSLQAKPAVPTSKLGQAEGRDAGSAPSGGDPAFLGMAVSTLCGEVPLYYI
Chain of amyloid-beta fibrils (Homo sapiens) (P05067 672-713): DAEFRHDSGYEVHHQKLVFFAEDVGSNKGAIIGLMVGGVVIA
Chain of soluble Aβ42 aggregates of different sizes (human) (P05067 671-713): as the sequence (P05067 671-713) above

As to “proSP-C BRICHOS BRICHOS (from UniProt P11686)”, the Kd in experiment [1] was 0.04 µM.

For the substance “proSP-C BRICHOS T187R (from UniProt P11686 59-197) (domain or fragment)”, in the experiment with Aβ42 fibrils (human), the KD2 (binding site 2, apparent) was determined as 25 nM; the ka2 (binding site 2) was determined as 6800 M^–1 s^–1; the kd2 (binding site 2) was 0.00017 s^–1.

With “proSP-C BRICHOS T187R-Atto655 (from UniProt P11686 59-197) (domain or fragment)”, in experiment [2], the stoichiometry N is less than 10.

Take “proSP-C BRICHOS WT (from UniProt P11686 59-197) (domain or fragment)”: in the experiment with Aβ42 fibrils (human), the KD2 (binding site 2, apparent) was 130 nM; the ka2 (binding site 2) stood at 1770 M^–1 s^–1; the kd2 (binding site 2) worked out at 0.00023 s^–1.
